Measurements reported in US20220017615A1 (SHANGHAI PHARMAEXPLORER, published 2022).

Columns and labels:
[1] = target: T1, human CD47, full length, on transfected cells (human, UniProt Q08722 19-323); assay: FACS CHOK1-hCD47; Ab 1.6 nM
T1 construct: whole, on cells; also called CHOK1-hCD47
Method: (§1) The CHOK1-hCD47 stable cell lines and CHOK1-cCD47 stable cell lines were expanded to 90% confluence in a T-75 cell culture flask, the medium was exhausted, washed twice with HBSS buffer (Hanks balanced salt solution) (purchased from Invitrogen), and then treated and collected with enzyme-free cell dissociation solution (Versene solution: purchased from Life technology). The cells were washed twice with HBSS buffer. After counted, the cells were diluted with HBSS to 2×10⁶ cells per ml, added with 1% goat serum blocking solution, wherein the percentage was the mass percantage, incubated on ice for 30 minutes, and then washed twice with HBSS by centrifugation. […] The plate was washed 3 times with FACS buffer by centrifugation, added with 100 μl fixative solution [4% (v/v) Paraformaldehyde] per well to suspend the cells. 10 minutes later, it was washed twice with FACS buffer by centrifugation. The cells were suspended with 100 microliters of FACS buffer, FACS (FACS Calibur, purchased from BD) was used for detection and the results were analyzed.

[2] = target: T2, His-tagged CD47 recombinant protein, CD47-His (human, UniProt Q08722 19-141, limits assumed); assay: ELISA on coated CD47-His; Ab 0 nM (background)
T2 construct: it is not restated for CD47-His; also called human CD47-His protein; antigen CD47-His; not shown: His tag

[3] = target: T3, cynomolgus CD47, on CHOK1-cCD47 stable cell line (cynomolgus); assay: FACS CHOK1-cCD47; Ab 0 nM (background)
T3 construct: whole, on cells; check before use; also called CHOK1/cynoCD47; monkey-derived CD47
Method: as §1

[4] = target: T4, biotin-labeled CD47 extracellular domain protein (CD47-ECD) (UniProt Q08722 19-139, limits assumed, biotin-labeled (sites not given)); assay: blocking ELISA, biotin-CD47-ECD on coated SIRPα-hFc; Ab 0.0128 nM
T4 construct: extracellular domain; also called CD47 protein

[5] = target: T4, biotin-labeled CD47 extracellular …; assay: blocking ELISA, biotin-CD47-ECD on coated SIRPα-hFc; Ab 200 nM
Method: (§2) The plate was sealed with plastic film and incubated at 4° C. overnight. The plate was washed twice with plate washing solution [PBS+0.01% (v/v) Tween20] on the next day, and blocking solution [PBS+0.01% (v/v) Tween20 +1% (w/w) BSA] was added to block it at room temperature for 2 hours. […] After incubation at 37° C. for 2 hours, the plate was washed three times with the plate washing solution [PBS+0.01% (v/v) Tween 20]. HRP (horseradish peroxidase) labeled avidin diluent (purchased from Sigma) was added as 100 microliters per well, and after the plate was incubated for 2 hours at 37° C., it was washed 3 times with washing solution [PBS+0.01% (v/v) Tween 20]. 100 μl of TMB substrate was added to each well. After incubated at room temperature for 30 minutes, the plate was added with 100 μl of stop solution (1.0N HCl) to each well.

[6] = target: T1, human CD47, full length, on transfected …; assay: FACS CHOK1-hCD47; Ab 200 nM
Method: as §1

[7] = target: T1, human CD47, full length, on transfected …; assay: FACS CHOK1-hCD47; Ab 40 nM
Method: as §1

[8] = target: T4, biotin-labeled CD47 extracellular …; assay: blocking ELISA, biotin-CD47-ECD on coated SIRPα-hFc; Ab 40 nM
Method: as §2

[9] = target: T2, His-tagged CD47 recombinant protein, …; assay: ELISA on coated CD47-His; Ab 0.004 nM
Method: (§3) The plate was sealed with plastic film and incubated at 4° C. overnight. The plate was washed twice with plate washing solution [PBS+0.01% (v/v) Tween20] the next day, and blocking solution [PBS+0.01% (v/v) Tween20 +1% (w/w) BSA] was added to block it at room temperature for 2 hours. […] After incubation at 37° C. for 2 hours, the plates were washed three times with plate washing solution [PBS+0.01% (v/v) Tween 20]. HRP (horseradish peroxidase) labeled secondary antibody (purchased from Sigma) was added, incubated at 37° C. for 2 hours, and then washed three times with plate washing solution [PBS+0.01% (v/v) Tween 20]. 1000 of TMB substrate was added to each well. After incubated at room temperature for 30 minutes, the plate was added with 100 μl of stop solution (1.0N HCl) to each well.

[10] = target: T2, His-tagged CD47 recombinant protein, …; assay: ELISA on coated CD47-His; Ab 2.667 nM
Method: as §3

[11] = target: T1, human CD47, full length, on transfected …; assay: FACS CHOK1-hCD47; Ab 0.0128 nM
Method: as §1

[12] = target: T4, biotin-labeled CD47 extracellular …; assay: blocking ELISA, biotin-CD47-ECD on coated SIRPα-hFc; Ab 0.064 nM
Method: as §2

[13] = target: T3, cynomolgus CD47, on CHOK1-cCD47 stable …; assay: FACS CHOK1-cCD47; Ab 1.6 nM
Method: as §1

[14] = target: T3, cynomolgus CD47, on CHOK1-cCD47 stable …; assay: FACS CHOK1-cCD47; Ab 0.0128 nM
Method: as §1

[15] = target: T2, His-tagged CD47 recombinant protein, …; assay: ELISA on coated CD47-His; Ab 0.107 nM
Method: as §3

[16] = target: T4, biotin-labeled CD47 extracellular …; assay: blocking ELISA, biotin-CD47-ECD on coated SIRPα-hFc; Ab 0 nM
Method: as §2

[17] = target: T2, His-tagged CD47 recombinant protein, …; assay: ELISA on coated CD47-His; Ab 0.533 nM
Method: as §3

[18] = target: T3, cynomolgus CD47, on CHOK1-cCD47 stable …; assay: FACS CHOK1-cCD47; Ab 0.064 nM
Method: as §1

[19] = target: T1, human CD47, full length, on transfected …; assay: FACS CHOK1-hCD47; Ab 0.064 nM
Method: as §1

[20] = target: T2, His-tagged CD47 recombinant protein, …; assay: ELISA on coated CD47-His; Ab 13.333 nM
Method: as §3

[21] = target: T4, biotin-labeled CD47 extracellular …; assay: blocking ELISA, biotin-CD47-ECD on coated SIRPα-hFc; Ab 1.6 nM
Method: as §2

[22] = target: T3, cynomolgus CD47, on CHOK1-cCD47 stable …; assay: FACS CHOK1-cCD47; Ab 8 nM
Method: as §1

[23] = target: T1, human CD47, full length, on transfected …; assay: FACS CHOK1-hCD47; Ab 0 nM (background)
Method: as §1

[24] = target: T4, biotin-labeled CD47 extracellular …; assay: blocking ELISA, biotin-CD47-ECD on coated SIRPα-hFc; Ab 0.32 nM
Method: as §2

[25] = target: T2, His-tagged CD47 recombinant protein, …; assay: ELISA on coated CD47-His; Ab 0.021 nM
Method: as §3

[26] = target: T2, His-tagged CD47 recombinant protein, …; assay: ELISA on coated CD47-His; Ab 66.667 nM
Method: as §3

[27] = target: T4, biotin-labeled CD47 extracellular …; assay: blocking ELISA, biotin-CD47-ECD on coated SIRPα-hFc; Ab 8 nM
Method: as §2

[28] = target: T3, cynomolgus CD47, on CHOK1-cCD47 stable …; assay: FACS CHOK1-cCD47; Ab 0.32 nM
Method: as §1

[29] = target: T3, cynomolgus CD47, on CHOK1-cCD47 stable …; assay: FACS CHOK1-cCD47; Ab 200 nM
Method: as §1

[30] = target: T1, human CD47, full length, on transfected …; assay: FACS CHOK1-hCD47; Ab 8 nM
Method: as §1

[31] = target: T1, human CD47, full length, on transfected …; assay: FACS CHOK1-hCD47; Ab 0.32 nM
Method: as §1

[32] = target: T3, cynomolgus CD47, on CHOK1-cCD47 stable …; assay: FACS CHOK1-cCD47; Ab 40 nM
Method: as §1

[33] = target: T3, cynomolgus CD47, on CHOK1-cCD47 stable …; assay: flow cytometry (FACS) on CHOK1-cynoCD47 cells, mean fluorescence intensity
Method: as §1

B1: 54G8G6 (antibody, V domains shown)
VH: QVQLQQPGADLVKPGASVKMSCKASGYTFTSYWIIWVKQRPGQGLEWIGDINPGRGSPNYNEKFKRKATLTVDTSSSTAYMQLSSLTSEDSAVYYCVRGGLRRFDHWGQGTLVTVSA
VL: ENVLTQSPAIMSASPGEKVTMTCRASSSVSSSYLHWYQQKSGASPKLWIYSTSTLASGVPARFSGSGSGTSYSLTISSVEAEDAATYYCQQYSGYPYTFGGGTKLEIK
notes: Murine hybridoma antibody purified on protein G
mean fluorescence intensity [1]: 6180 | OD450 nm [2]: 0.05 | mean fluorescence intensity [3]: 76.8 | OD450 nm of CD47 bound to SIRPα [4]: 2.89 | OD450 nm of CD47 bound to SIRPα [5]: 0.07 | mean fluorescence intensity [6]: 16700 | mean fluorescence intensity [7]: 17700 | OD450 nm of CD47 bound to SIRPα [8]: 0.06 | OD450 nm [9]: 0.18 | OD450 nm [10]: 3 | mean fluorescence intensity [11]: 216 | OD450 nm of CD47 bound to SIRPα [12]: 1.76 | mean fluorescence intensity [13]: 9570 | mean fluorescence intensity [14]: 278 | OD450 nm [15]: 2.1 | OD450 nm of CD47 bound to SIRPα [16]: 2.9 | OD450 nm [17]: 2.99 | mean fluorescence intensity [18]: 908 | mean fluorescence intensity [19]: 561 | OD450 nm [20]: 2.94 | OD450 nm of CD47 bound to SIRPα [21]: 0.13 | mean fluorescence intensity [22]: 21300 | mean fluorescence intensity [23]: 23.1 | OD450 nm of CD47 bound to SIRPα [24]: 0.31 | OD450 nm [25]: 0.62 | OD450 nm [26]: 2.86 | OD450 nm of CD47 bound to SIRPα [27]: 0.09 | mean fluorescence intensity [28]: 3250 | mean fluorescence intensity [29]: 17200 | mean fluorescence intensity [30]: 13500 | mean fluorescence intensity [31]: 1940 | mean fluorescence intensity [32]: 21200

B2: 95E2D10 (antibody, V domains shown)
VH: QIQLQQSGPELVKPGASMKISCKASGYPFTDYYIHWVKQKPGQGLEWIGWIYPGSGNNKYNEKFKGKATLTVDTSPSTVYMQLSSLTSEDTAVYFCARRAGNYFDYWGQGTTLTVSS
VL: NIVMTQSPKSMSRSVGERVTLSCRASENVRTYVFWYQQKPGLSPKLLIYGASNRYIGVPDRFTGSGSATDFTLTISSVQAEDLADYHCGQSYSYPLTFGAGTKLELK
notes: as for B1
mean fluorescence intensity [1]: 6140 | OD450 nm [2]: 0.05 | mean fluorescence intensity [3]: 76 | OD450 nm of CD47 bound to SIRPα [4]: 2.96 | OD450 nm of CD47 bound to SIRPα [5]: 0.06 | mean fluorescence intensity [6]: 15800 | mean fluorescence intensity [7]: 17300 | OD450 nm of CD47 bound to SIRPα [8]: 0.06 | OD450 nm [9]: 0.17 | OD450 nm [10]: 3.01 | mean fluorescence intensity [11]: 221 | OD450 nm of CD47 bound to SIRPα [12]: 2.84 | mean fluorescence intensity [13]: 7990 | mean fluorescence intensity [14]: 223 | OD450 nm [15]: 2.07 | OD450 nm of CD47 bound to SIRPα [16]: 2.94 | OD450 nm [17]: 2.96 | mean fluorescence intensity [18]: 734 | mean fluorescence intensity [19]: 408 | OD450 nm [20]: 2.98 | OD450 nm of CD47 bound to SIRPα [21]: 0.52 | mean fluorescence intensity [22]: 21400 | mean fluorescence intensity [23]: 23.3 | OD450 nm of CD47 bound to SIRPα [24]: 2 | OD450 nm [25]: 0.58 | OD450 nm [26]: 2.93 | OD450 nm of CD47 bound to SIRPα [27]: 0.09 | mean fluorescence intensity [28]: 3040 | mean fluorescence intensity [29]: 21200 | mean fluorescence intensity [30]: 12300 | mean fluorescence intensity [31]: 2490 | mean fluorescence intensity [32]: 17500

B3: Hu5F9-G4 (antibody, V domains shown)
VH: QVQLVQSGAEVKKPGASVKVSCKASGYTFTNYNMHWVRQAPGQRLEWMGTIYPGNDDTSYNQKFKDRVTITADTSASTAYMELSSLRSEDTAVYYCARGGYRAMDYWGQGTLVTVSS
VL: DIVMTQSPLSLPVTPGEPASISCRSSQSIVYSNGNTYLGWYLQKPGQSPQLLIYKVSNRFSGVPDRFSGSGSGTDFTLKISRVEAEDVGVYYCFQGSHVPYTFGQGTKLEIKR
EC50 (read off the curve) [33]: ~3 nM

B4: 132D1E5 (antibody, V domains shown)
VH: QVQLQQPGAELVRPGSSVKLSCKASGYTFTNNWMHWVKQRPLQGLEWIGNIDPSDSETHYNQKFKDKATLTVDKSSTTAYIQLSSLTSEDSAVYYCARWRGGGRGAMDYWGQGTSVTVSS
VL: DVQITQSPSYLAASPGETITINCRTSKNISKFLAWYQEKPGKTNKLLIYSGSTLQSGIPSRFSGSGSGTDFTLTISNLEPEDFAMYYCQQHNEYPWTFGRGTKLEIK
notes: as for B1
mean fluorescence intensity [1]: 3750 | OD450 nm [2]: 0.06 | mean fluorescence intensity [3]: 72.5 | OD450 nm of CD47 bound to SIRPα [4]: 2.92 | OD450 nm of CD47 bound to SIRPα [5]: 0.08 | mean fluorescence intensity [6]: 7100 | mean fluorescence intensity [7]: 8230 | OD450 nm of CD47 bound to SIRPα [8]: 0.08 | OD450 nm [9]: 0.14 | OD450 nm [10]: 3.07 | mean fluorescence intensity [11]: 88.4 | OD450 nm of CD47 bound to SIRPα [12]: 2.55 | mean fluorescence intensity [13]: 6060 | mean fluorescence intensity [14]: 224 | OD450 nm [15]: 1.83 | OD450 nm of CD47 bound to SIRPα [16]: 2.89 | OD450 nm [17]: 2.96 | mean fluorescence intensity [18]: 689 | mean fluorescence intensity [19]: 318 | OD450 nm [20]: 2.95 | OD450 nm of CD47 bound to SIRPα [21]: 0.16 | mean fluorescence intensity [22]: 8740 | mean fluorescence intensity [23]: 18.1 | OD450 nm of CD47 bound to SIRPα [24]: 0.79 | OD450 nm [25]: 0.49 | OD450 nm [26]: 2.88 | OD450 nm of CD47 bound to SIRPα [27]: 0.07 | mean fluorescence intensity [28]: 2060 | mean fluorescence intensity [29]: 6970 | mean fluorescence intensity [30]: 6310 | mean fluorescence intensity [31]: 1330 | mean fluorescence intensity [32]: 5610
